Data: patent US5453371

Molecular target: 4-phenylazo-benzyloxycarbonyl-L-Pro-Leu-Gly-L-Pro-D-Arg.HCl

With “Achromobacter collagenase gene product of Vibrio alginolyticus produced in recombinant Escherichia coli JM109 (plasmid pHUC14 or pLCO-1) (enzyme)” the Collagenase activity was 189 U.
